According to patent publication US20220002397A1 (Hoffmann-La Roche, published 2022):

T1: VEGF-121-His (inhouse production) (human, UniProt P15692 207-395)
T1 construct: also called hVEGF-A121; VEGF-A121; not shown: His tag
T1 sequence: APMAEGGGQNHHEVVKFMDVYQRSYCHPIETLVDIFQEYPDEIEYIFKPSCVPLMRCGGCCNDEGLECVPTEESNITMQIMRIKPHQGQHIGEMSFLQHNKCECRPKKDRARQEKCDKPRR


Legend:
[1] = biological target: T1, VEGF-121-His (inhouse production); experiment: inhibition ELISA: antibody pre-incubated with 0.34 nM VEGF-121-His, binding to coated biotinylated VEGF-R1 detected
Method: 384 well streptavidin plates (Nunc/Microcoat #11974998001) were coated with 0.25 μg/mlbiotinylated VEGF-R1 or […] biotinylated VEGF-R2 (inhouse production, each 25 μl/well in DPBS (1×) (PAN, #PO4-36500)). Plates were incubated for 1 h at room temperature. […] This pre-incubation step was carried out in 384 well PP plates (Weidmann medical technology, #23490-101) in 1×OSEP buffer (bidest water, 10×, Roche, #11 666 789 001+0.5% Bovine Serum Albumin Fraction V, fatty acid free, Roche, #10 735 086 001+0.05% Tween 20). Plates were incubated for 1 h at room temperature. After washing VEGF-R1/VEGF-R2 coated streptavidin plates 3 times with 90 μl/well PBST-buffer (bidest water, 10×PBS Roche #11666789001+0.1% Tween 20), 25 μl of samples from the VEGF-antibody pre-incubation plate were transferred to coated strepavidin plates which were subsequently incubated for 1 h at room temperature. After washing 3 times with 90 μl/well PBST-buffer, 25 μl/well detection antibody (anti His POD, Bethyl, #A190-114P, 1:12000) in 1×OSEP was added. After incubation for 1 h at room temperature plates were washed 3 times with 90 μl PBST-buffer. 25 μl TMB (Roche, #11 835 033 001) was added to all wells simultaneously. After 10 min incubation at room temperature, signals were detected at 370 nm/492 nm on a Tecan Safire 2 Reader. […]

[2] = biological target: T1, VEGF-121-His (inhouse production); experiment: SPR, hVEGF-A121 captured by anti-His antibody, Fab as analyte, 25 C; 25 C; Table 3 (later example)
Method: (§1) An anti-His capturing antibody (GE Healthcare 28995056) was immobilized to a Series S Sensor Chip C1 (GE Healthcare 29104990) using standard amine coupling chemistry resulting in a surface densitiy of 500-1000 resonance units (RU). As running and dilution buffer, HBS-P+(10 mM HEPES, 150 mM NaCl pH 7.4, 0.05% Surfactant P20) was used, the measurement temperature was set to 25° C. and 37° C., respectively. hVEGF-A121 was captured to the surface with resulting capture levels ranging from 5 to 35 RU. Dilution series of anti-VEGF antibodies (0.37-30 nM) were injected for 120 s, dissociation was monitored for at least 600 s at a flow rate of 30 μl/min. The surface was regenerated by injecting 10 mM Glycine pH 1.5 for 60 s. Bulk refractive index differences were corrected by subtracting blank injections and by subtracting the response obtained from the control flow cell without captured hVEGF-A121. Rate constants were calculated using the Langmuir 1:1 binding model within the Biacore Evaluation software.
(§2) The affinity of the antibodies was determined by SPR using the same methods as described in Example 1.

[3] = biological target: T1, VEGF-121-His (inhouse production); experiment: SPR (Biacore), hVEGF-A121 captured by anti-His antibody on C1 chip, Fab as analyte, 1:1 Langmuir model, 25 C; 25 C; Example 1
Method: VEGF-binding of antibody VEGF-0089 Fab fragment was assessed by surface plasmon resonance (SPR) as described below.
as §1

[4] = biological target: T1, VEGF-121-His (inhouse production); experiment: SPR, hVEGF-A121 captured by anti-His antibody, Fab as analyte, 37 C
Method: as §1, §2

[5] = biological target: T1, VEGF-121-His (inhouse production); experiment: SPR, hVEGF-A121 captured by anti-His antibody, Fab as analyte, 25 C
Method: as §1, §2

Row | binding result [1] | Kd [2] | Kd [3] | Kd [4] | Kd [5] | Binder
1 | binds | – | – | – | – | VEGF-P1AD8674 Fab (Fab, V domains shown, Variant of VEGF-0089 with D72N, S74A, K75E (Kabat) in H-FR3) VH: EVQLVESGGGLVQPGGSLRLSCAASGFTFTNYAMTWVRQAPGKGLEWVSSIGNGGGIYTYYADSVKGRFTISRNNAENTLYLQMNSLRAEDTAVYYCAKGDNLFDSWGPGTLVTVSS VL: DIQMTQSPASLSASVGDRVTITCRASQSIYSSLNWYQQKPGKAPKLLIYASTLQSGVPSRFSGSASGTDFTLTISSLQPEDVATYYCQQYQNFPRTFGQGTKLEIKR
2 | – | 0.143 nM | 0.134 nM | 0.11 nM | – | VEGF-0089 Fab fragment (Fab, V domains shown, Parent antibody; also called antibody VEGF-0089) VH: EVQLVESGGGLVQPGGSLRLSCAASGFTFTNYAMTWVRQAPGKGLEWVSSIGNGGGIYTYYADSVKGRFTISRDNSKNTLYLQMNSLRAEDTAVYYCAKGDNLFDSWGPGTLVTVSS VL: DIQMTQSPASLSASVGDRVTITCRASQSIYSSLNWYQQKPGKAPKLLIYASTLQSGVPSRFSGSASGTDFTLTISSLQPEDVATYYCQQYQNFPRTFGQGTKLEIKR
3 | – | – | – | 0.085 nM | 0.074 nM | VEGF-0112 Fab (Fab, V domains shown, Variant of VEGF-0089 with N52aS (Kabat) in H-CDR2) VH: EVQLVESGGGLVQPGGSLRLSCAASGFTFTNYAMTWVRQAPGKGLEWVSSIGSGGGIYTYYADSVKGRFTISRDNSKNTLYLQMNSLRAEDTAVYYCAKGDNLFDSWGPGTLVTVSS VL: DIQMTQSPASLSASVGDRVTITCRASQSIYSSLNWYQQKPGKAPKLLIYASTLQSGVPSRFSGSASGTDFTLTISSLQPEDVATYYCQQYQNFPRTFGQGTKLEIKR
